The values below come from publication PMC2766422.

The Kd is the equilibrium constant for the complex coming apart. Lower therefore signals tighter binding.

In data set [1] the target is T1, PTB1 (human, UniProt P26599-1 1-531). The data set is described as follows: EMSA. On the technique in general: A gel shift assay detects complexes by their altered migration in electrophoresis.
The target of data set [2] is T2, PTB1:34 (RRM3-RRM4) (human, UniProt P26599-1 334-531). The data set is described as follows: EMSA.
The target in data set [3] is T1, PTB1. The data set is described as follows: EMSA. This is another data set of the same source.
The target in data set [4] is PTB1/W1 (human, UniProt P26599-1 1-531, F98W). Nature of the data set: EMSA.
Data set [5] has as its target T3, PTB1/W4 (human, UniProt P26599-1 1-531, F487W). The data set is described as follows: EMSA.
Data set [6] has as its target T4, PTB1/W3 (human, UniProt P26599-1 1-531, F371W). Nature of the data set: EMSA.
For data set [7], the target named is T5, PTB1:12 (RRM1-RRM2) (human, UniProt P26599-1 1-301). The data set is described as follows: EMSA.
Data set [8] addresses T1, PTB1. Nature of the data set: EMSA. The source holds these as a separate data set.
The target of data set [9] is T5, PTB1:12 (RRM1-RRM2). The data set is described as follows: EMSA. The source holds these as a separate data set.
Data set [10] concerns the target T3, PTB1/W4. The data set is described as follows: Trp fluorescence quenching.
In data set [11] the target is T1, PTB1. Nature of the data set: filter binding.
In data set [12] the target is T4, PTB1/W3. Nature of the data set: Trp fluorescence quenching.
Data set [13] has as its target T1, PTB1. The data set is described as follows: EMSA. The source holds these as a separate data set.
In data set [14] the target is T2, PTB1:34 (RRM3-RRM4). The data set is described as follows: EMSA. The source holds these as a separate data set.
The target of data set [15] is T1, PTB1. Nature of the data set: EMSA. This is another data set of the same source.
Data set [16] concerns the target T5, PTB1:12 (RRM1-RRM2). The data set is described as follows: EMSA. The source holds these as a separate data set.
Data set [17] concerns the target T2, PTB1:34 (RRM3-RRM4). Nature of the data set: EMSA. This is another data set of the same source.
Data set [18] deals with T1, PTB1. The data set is described as follows: EMSA. The source holds these as a separate data set.

Read-outs that look alike come from different tables or passages of the source.

B1: c-src 5' SL + N1 (78-mer, RNA78) (structured_RNA)
RNA: GGCAACCCUCUCCUUCUCUCUGCUUCUCUCUCGCUGGCCCUUAGGAGGAAGGUGCCAUCGAUGUCAGGUGUGUACCGAGG
Regarding B1, the Kd in data set [1] amounted to 80 ± 2 nM.
GGGACUACGCAAUUCUCUUUUCUGUCUACAAAUCCAAAG (ssRNA) [GABA RNA11]: the Kd in data set [2] worked out at 50 ± 3 nM; in [3] it was 15 ± 2 nM. The binding signal in data set [4], in data set [5] and in data set [6] was ~2 fold lower affinity than PTB1 each time. Also, the binding result in data set [7] is “no binding”.
Turning to GGAGACUUGGUGGCUCCAUCUUAGCCCUA (structured_RNA) [HCV X SL3], the values for the Kd in data set [8], in [9] and in data set [11] were 285 ± 120 nM, 1600 ± 600 nM and 410 ± 30 nM, respectively. The binding result in data set [10] and in [12] was “binds” in each case.

B2: c-src 3' end RNA (structured_RNA)
RNA: GGGAUCGCUUCGCUGAGGCUGGGGGCUGCUCUCUGCAUGUGCUUCCUCCACCGCCCCUGUGUGUUUCCAGCUCUCUCCCCGUCCCUUUAGCUUACCCUGCAUCCCACCUGUAUGAGCCGUACCC
As to B2, the binding result in data set [13] and in [14] was “binds” throughout.
Turning to GGGCUUCUUCGGAUGUUUUCCUUCAAG (structured_RNA) [GABAA gamma2 exon 4 RNA], the binding result in data set [15], in data set [16] and in data set [17] was “no binding” in each case.
The molecule GGAUCCUUCUCUCUGCUUCUCUCUCGCUGGCCCUUAGGAGG (structured_RNA) [c-src 5' SL (39-mer)] returned a Kd in data set [18] of 45 ± 2 nM.
Consider GGGAUCGGUGCCAUCGAUGUCAGGUGUGUACCCCUUAGGAGG (structured_RNA) [c-src exon N1 RNA], for which the binding result in [15], in [16] and in data set [17] was “no binding” in each case.
GGGUCACGGCUAGCUGUGAAAGGUCCGUGAG (structured_RNA) [HCV X SL2]: the binding result in data set [15] was “no binding”.
